Experimental data taken from paper PMC4491848.

Biological target: platelet membrane glycoprotein (GP) Ib on human platelets (human (endogenous in platelets)) (UniProt P07359)
Sequence of UniProt P07359 (P07359 17-652, chain 1 of 2): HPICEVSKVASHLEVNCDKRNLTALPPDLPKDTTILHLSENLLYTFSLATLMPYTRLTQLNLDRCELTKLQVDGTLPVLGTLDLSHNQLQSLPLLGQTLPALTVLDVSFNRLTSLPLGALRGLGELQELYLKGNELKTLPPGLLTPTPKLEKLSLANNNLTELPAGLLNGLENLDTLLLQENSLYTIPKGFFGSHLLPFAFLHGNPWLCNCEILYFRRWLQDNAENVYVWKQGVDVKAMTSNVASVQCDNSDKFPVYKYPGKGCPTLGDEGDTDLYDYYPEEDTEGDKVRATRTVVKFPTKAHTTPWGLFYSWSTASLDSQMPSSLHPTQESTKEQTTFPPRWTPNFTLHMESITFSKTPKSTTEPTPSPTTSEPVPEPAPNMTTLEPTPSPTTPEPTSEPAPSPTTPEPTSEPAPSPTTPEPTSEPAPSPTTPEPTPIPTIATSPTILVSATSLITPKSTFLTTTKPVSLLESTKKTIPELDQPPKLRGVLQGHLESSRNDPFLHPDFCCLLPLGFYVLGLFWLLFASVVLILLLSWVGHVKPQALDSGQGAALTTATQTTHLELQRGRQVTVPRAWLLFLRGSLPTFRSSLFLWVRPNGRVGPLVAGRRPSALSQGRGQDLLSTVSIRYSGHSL
Sequence of UniProt P07359 (P13224 26-206, chain 2 of 2, further chain): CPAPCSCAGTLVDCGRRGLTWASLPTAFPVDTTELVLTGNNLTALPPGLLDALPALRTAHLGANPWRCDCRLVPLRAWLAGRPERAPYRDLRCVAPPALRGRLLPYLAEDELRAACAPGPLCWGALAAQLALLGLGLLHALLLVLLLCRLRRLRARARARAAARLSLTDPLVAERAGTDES

Row | Substance | ristocetin-induced platelet aggregation rate in human platelet-rich plasma, dose series up to 3 μg/ml; value at the 3 μg/ml dose; the pair said to be blocked is GPIb and vWF
1 | natural Agkisacutacin (complex) | 3.46%
2 | recombinant Agkisacutacin (complex) | 5.65%
